Source: US20150315289A1 (published 2015)
Positions of bridges follow the written chain, without caps; N, C: chain ends. No end group written: not given here.

T1: linear phage-display peptide WTWNITKAYPLP
T1 peptide: WTWNITKAYPLP

T2: linear phage-display peptide WTWNITKEYPQP
T2 peptide: WTWNITKEYPQP

T3: cyclic phage-display peptide ACPEWWGTTC (disulfide 2-10)
T3 peptide: ACPEWWGTTC

B1: humanized PAM4 (hPAM4) IgG (antibody, V domains shown)
VH: QVQLQQSGAEVKKPGASVKVSCEASGYTFPSYVLHWVKQAPGQGLEWIGYINPYNDGTQYNEKFKGKATLTRDTSINTAYMELSRLRSDDTAVYYCARGFGGSYGFAYWGQGTLVTVSS
VL: DIQLTQSPSSLSASVGDRVTMTCSASSSVSSSYLYWYQQKPGKAPKLWIYSTSNLASGVPARFSGSGSGTDFTLTISSLQPEDSASYFCHQWNRYPYTFGGGTRLEIKR
notes: humanized IgG1 kappa; used HRP-conjugated in some ELISAs and blots; also called clivatuzumab; HRP-hPAM4
B2: murine PAM4 (mPAM4) (antibody, V domains shown)
VH: EVQLQESGPELVKPGASVKMSCKASGYTFPSYVLHWVKQKPGQGLEWIGYINPYNDGTQYNEKFKGKATLTSDKSSSTAYMELSRLTSEDSAVYYCARGFGGSYGFAYWGQGTLITVSA
VL: DIVMTQSPAIMSASPGEKVTMTCSASSSVSSSYLYWYQQKPGSSPKLWIYSTSNLASGVPARFSGSGSGTSYSLTISSMEAEDAASYFCHQWNRYPYTFGGGTKLEIK
notes: also called MAb PAM4; mAb-PAM4

Columns and labels:
[1] = target: T1, linear phage-display peptide …; assay: phage-displayed peptide screen with hPAM4 and mPAM4
From the text: (§1) The first was a linear peptide library consisting of 12 amino acid sequences and the second was a cyclic peptide consisting of 7 amino acid sequences cyclized by a disulfide bridge.

[2] = target: T2, linear phage-display peptide …; assay: degenerate phage library panned and screened as before (hPAM4 and mPAM4)
From the text: as §1

MUC17 = MUC17 (UniProt Q685J3 26-4493); assay: immunofluorescence co-localisation on human carcinoma cell lines (data not shown)
[3] = target: T3, cyclic phage-display peptide ACPEWWGTTC; assay: phage-displayed peptide immunoreactivity, against the linear peptide

| Binder | binding result [1] | binding result [2] | binding result (MUC17) | immunoreactivity relative to the linear sequence [3] |
| --- | --- | --- | --- | --- |
| B1 | binds | binds | no binding |  |
| B2 | binds | binds |  | ~10% |
